IntAct's records for PubMed 11297558

B1: Adhesion G protein-coupled receptor E5 (Homo sapiens), P48960 (parent)
chain: MGGRVFLAFCVWLTLPGAETQDSRGCARWCPQNSSCVNATACRCNPGFSSFSEIITTPTETCDDINECATPSKVSCGKFSDCWNTEGSYDCVCSPGYEPVSGAKTFKNESENTCQDVDECQQNPRLCKSYGTCVNTLGSYTCQCLPGFKFIPEDPKVCTDVNECTSGQNPCHSSTHCLNNVGSYQCRCRPGWQPIPGSPNGPNNTVCEDVDECSSGQHQCDSSTVCFNTVGSYSCRCRPGWKPRHGIPNNQKDTVCEDMTFSTWTPPPGVHSQTLSRFFDKVQDLGRDSKTSSAEVTIQNVIKLVDELMEAPGDVEALAPPVRHLIATQLLSNLEDIMRILAKSLPKGPFTYISPSNTELTLMIQERGDKNVTMGQSSARMKLNWAVAAGAEDPGPAVAGILSIQNMTTLLANASLNLHSKKQAELEEIYESSIRGVQLRRLSAVNSIFLSHNNTKELNSPILFAFSHLESSDGEAGRDPPAKDVMPGPRQELLCAFWKSDSDRGGHWATEGCQVLGSKNGSTTCQCSHLSSFAILMAHYDVEDWKLTLITRVGLALSLFCLLLCILTFLLVRPIQGSRTTIHLHLCICLFVGSTIFLAGIENEGGQVGLRCRLVAGLLHYCFLAAFCWMSLEGLELYFLVVRVFQGQGLSTRWLCLIGYGVPLLIVGVSAAIYSKGYGRPRYCWLDFEQGFLWSFLGPVTFIILCNAVIFVTTVWKLTQKFSEINPDMKKLKKARALTITAIAQLFLLGCTWVFGLFIFDDRSLVLTYVFTILNCLQGAFLYLLHCLLNKKVREEYRKWACLVAGGSKYSEFTSTTSGTGHNQTRALRASESGI
B2: Adhesion G protein-coupled receptor E2 (Homo sapiens), Q9UHX3 (parent)
chain: MGGRVFLVFLAFCVWLTLPGAETQDSRGCARWCPQDSSCVNATACRCNPGFSSFSEIITTPMETCDDINECATLSKVSCGKFSDCWNTEGSYDCVCSPGYEPVSGAKTFKNESENTCQDVDECQQNPRLCKSYGTCVNTLGSYTCQCLPGFKLKPEDPKLCTDVNECTSGQNPCHSSTHCLNNVGSYQCRCRPGWQPIPGSPNGPNNTVCEDVDECSSGQHQCDSSTVCFNTVGSYSCRCRPGWKPRHGIPNNQKDTVCEDMTFSTWTPPPGVHSQTLSRFFDKVQDLGRDYKPGLANNTIQSILQALDELLEAPGDLETLPRLQQHCVASHLLDGLEDVLRGLSKNLSNGLLNFSYPAGTELSLEVQKQVDRSVTLRQNQAVMQLDWNQAQKSGDPGPSVVGLVSIPGMGKLLAEAPLVLEPEKQMLLHETHQGLLQDGSPILLSDVISAFLSNNDTQNLSSPVTFTFSHRSVIPRQKVLCVFWEHGQNGCGHWATTGCSTIGTRDTSTICRCTHLSSFAVLMAHYDVQEEDPVLTVITYMGLSVSLLCLLLAALTFLLCKAIQNTSTSLHLQLSLCLFLAHLLFLVAIDQTGHKVLCSIIAGTLHYLYLATLTWMLLEALYLFLTARNLTVVNYSSINRFMKKLMFPVGYGVPAVTVAISAASRPHLYGTPSRCWLQPEKGFIWGFLGPVCAIFSVNLVLFLVTLWILKNRLSSLNSEVSTLRNTRMLAFKATAQLFILGCTWCLGILQVGPAARVMAYLFTIINSLQGVFIFLVYCLLSQQVREQYGKWSKGIRKLKTESEMHTLSSSAKADTSKPSTVN

Variants of: B1
Settings: with daf_human CD55, P08174
daf_human CD55, P08174, sequence (P08174 whole entry): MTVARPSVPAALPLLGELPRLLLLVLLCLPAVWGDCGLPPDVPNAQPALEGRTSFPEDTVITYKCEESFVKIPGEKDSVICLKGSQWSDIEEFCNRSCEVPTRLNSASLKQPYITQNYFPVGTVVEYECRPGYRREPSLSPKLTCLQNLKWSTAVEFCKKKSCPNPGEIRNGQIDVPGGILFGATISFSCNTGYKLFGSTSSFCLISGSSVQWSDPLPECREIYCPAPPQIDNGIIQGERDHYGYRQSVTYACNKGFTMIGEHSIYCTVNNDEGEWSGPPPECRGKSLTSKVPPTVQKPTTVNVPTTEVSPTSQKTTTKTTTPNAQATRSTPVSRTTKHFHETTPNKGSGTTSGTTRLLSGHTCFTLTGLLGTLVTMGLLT

Row | Variant | effect of a mutation on the interaction
1 | N33D | decreasing interaction strength
2 | P71L | decreasing interaction strength
3 | T59M | decreasing interaction strength

Variants of: B2
Settings: with daf_human CD55, P08174

Row | Variant | effect of a mutation on the interaction
4 | D36N | causing an interaction
5 | M62T | causing an interaction
6 | L74P | causing an interaction
